Laboratory results as given in patent US20170283457A1 (YEDA RESEARCH AND DEVELOPMENT, published 2017).

B3: Importin7 (receptor, UniProt O95373 1-1038, looked up)
chain: MDPNTIIEALRGTMDPALREAAERQLNEAHKSLNFVSTLLQITMSEQLDLPVRQAGVIYLKNMITQYWPDRETAPGDISPYTIPEEDRHCIRENIVEAIIHSPELIRVQLTTCIHHIIKHDYPSRWTAIVDKIGFYLQSDNSACWLGILLCLYQLVKNYEYKKPEERSPLVAAMQHFLPVLKDRFIQLLSDQSDQSVLIQKQIFKIFYALVQYTLPLELINQQNLTEWIEILKTVVNRDVPNETLQVEEDDRPELPWWKCKKWALHILARLFERYGSPGNVSKEYNEFAEVFLKAFAVGVQQVLLKVLYQYKEKQYMAPRVLQQTLNYINQGVSHALTWKNLKPHIQGIIQDVIFPLMCYTDADEELWQEDPYEYIRMKFDVFEDFISPTTAAQTLLFTACSKRKEVLQKTMGFCYQILTEPNADPRKKDGALHMIGSLAEILLKKKIYKDQMEYMLQNHVFPLFSSELGYMRARACWVLHYFCEVKFKSDQNLQTALELTRRCLIDDREMPVKVEAAIALQVLISNQEKAKEYITPFIRPVMQALLHIIRETENDDLTNVIQKMICEYSEEVTPIAVEMTQHLAMTFNQVIQTGPDEEGSDDKAVTAMGILNTIDTLLSVVEDHKEITQQLEGICLQVIGTVLQQHVLEFYEEIFSLAHSLTCQQVSPQMWQLLPLVFEVFQQDGFDYFTDMMPLLHNYVTVDTDTLLSDTKYLEMIYSMCKKVLTGVAGEDAECHAAKLLEVIILQCKGRGIDQCIPLFVEAALERLTREVKTSELRTMCLQVAIAALYYNPHLLLNTLENLRFPNNVEPVTNHFITQWLNDVDCFLGLHDRKMCVLGLCALIDMEQIPQVLNQVSGQILPAFILLFNGLKRAYACHAEHENDSDDDDEAEDDDETEELGSDEDDIDEDGQEYLEILAKQAGEDGDDEDWEEDDAEETALEGYSTIIDDEDNPVDEYQIFKAIFQTIQNRNPVWYQALTHGLNEEQRKQLQDIATLADQRRAAHESKMIEKHGGYKFSAPVVPSSFNFGGPAPGMN
notes: Endogenous protein; also called Imp7; RANBP7

Columns and labels:
Importin9 [1] = target: T1, Importin9 (UniProt Q96P70 2-1041); assay: in vitro interaction: GST-MAPK with Imp IPed from stimulated HeLa cells, Western blot
T1 construct: Endogenous protein; also called Imp9; IMB5
T1 sequence (Q96P70 2-1041 limits assumed): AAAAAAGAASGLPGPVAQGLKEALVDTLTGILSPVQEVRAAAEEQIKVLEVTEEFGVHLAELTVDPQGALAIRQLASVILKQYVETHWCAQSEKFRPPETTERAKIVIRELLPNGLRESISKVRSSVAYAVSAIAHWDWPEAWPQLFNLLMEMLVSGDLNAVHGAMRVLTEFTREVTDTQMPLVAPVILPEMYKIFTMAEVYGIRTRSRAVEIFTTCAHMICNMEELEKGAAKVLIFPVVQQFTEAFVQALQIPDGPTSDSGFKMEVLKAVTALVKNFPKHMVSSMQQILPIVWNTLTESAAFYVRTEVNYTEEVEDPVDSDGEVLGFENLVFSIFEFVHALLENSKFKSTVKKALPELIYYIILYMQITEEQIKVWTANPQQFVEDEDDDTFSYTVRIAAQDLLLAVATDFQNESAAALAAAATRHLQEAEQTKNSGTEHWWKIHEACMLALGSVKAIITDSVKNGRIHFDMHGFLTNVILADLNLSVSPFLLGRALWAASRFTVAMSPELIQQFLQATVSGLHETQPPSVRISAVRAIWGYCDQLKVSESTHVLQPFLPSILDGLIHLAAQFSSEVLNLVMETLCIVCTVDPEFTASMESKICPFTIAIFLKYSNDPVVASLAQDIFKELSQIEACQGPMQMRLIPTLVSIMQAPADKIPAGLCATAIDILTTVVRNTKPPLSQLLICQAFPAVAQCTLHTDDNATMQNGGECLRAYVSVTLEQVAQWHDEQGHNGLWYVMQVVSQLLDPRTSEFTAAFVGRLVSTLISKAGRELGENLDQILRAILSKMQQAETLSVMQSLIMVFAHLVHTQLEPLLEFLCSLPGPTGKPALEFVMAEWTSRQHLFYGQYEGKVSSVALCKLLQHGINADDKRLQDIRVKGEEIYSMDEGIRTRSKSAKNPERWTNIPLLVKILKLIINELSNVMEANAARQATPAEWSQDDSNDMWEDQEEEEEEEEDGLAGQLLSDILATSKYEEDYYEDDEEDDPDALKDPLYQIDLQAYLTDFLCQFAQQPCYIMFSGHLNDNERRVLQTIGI
Description: (§1) FIGS. 3A-3B illustrate that JNK1/2 and p38α/β directly interact with either Imp7 or Imp9 but not with Imp3. (A) In vitro interaction of JNK1/2 and p38α/β with Imp3/7/9. Purified Imp3/7/9 were prepared by IP as follows: HeLa cells were grown to 70% confluence, serum starved, and then were either stimulated with Anisomycin (Anis 0.5 μg/ml, 15 min), TPA (250 nM, 15 min) or left untreated (NT). Imp3/7/9 were then IPed from the cell's extracts and extensively washed, twice with RIPA buffer and once with 0.5M LiCl. The indicated GST-MAPKs were prepared from bacteria as described under Materials and methods. To examine association, 500 ng of each GST-MAPK were incubated with 20 μl of the indicated IPed Imps in PBS (2 hrs, 4° C., with rotation). The beads were then washed with washing buffer containing 150 mM NaCl, and interacting MAPKs were detected using Western blot analysis with the indicated Abs. (B) Imp3 is not required for Imp7/9 interactions with JNK1/2 and p38α/β. HeLa cells were treated with Si RNAs of Imp3 according to the manufacturer instructions. […] Cell extracts were then subjected to Co-IP with anti Imp7 or Imp9, the interacting MAPKs were detected by Western blot with the indicated Abs. Amount of IPed Imps was detected by the indicated Abs.

Importin7 [2] = target: B3; assay: as above
Description: as §1

Importin9 [3] = target: T1, Importin9; assay: Co-IP with anti GFP Abs, transfected HeLa cells
Description: (§2) FIGS. 10A-10B illustrate that endogenous and overexpressed JNK1/2 and p38α/β CoIP with Imp3, 7 and 9. (A) A Co-IP screen to detect the importins interacting with JNK1/2 and p38α/β in MCF7 cells. MCF7 cells were grown on slides to 70% confluence, serums starved and then were either stimulated with Anisomycin (Anis 0.5 μg/ml, 15 min), TPA (250 nM, 15 min) or left untreated (NT). Cells extracts were then subjected to Co-IP with anti JNK1, JNK2, p38α, or p38β, and rabbit IgG as a negative control (Control). The interacting Imps or the IPed MAPKs were detected by Western blot with the indicated Imps or MAPK Abs. (B) Interaction of overexpressed MAPKs in HeLa cells. HeLa cells were transfected with either JNK2-GFP (wt-JNK2), p38ββ-GFP (wt-p38β) or GFP alone. Cells were serum starved, and then treated with Anisomycin (Anis 0.5 μg/ml, 15 min), TPA (250 nM, 15 min). Cells extracts were then subjected to a CoIP with anti GFP Abs. The interacting Imps and the loading extracts were detected using Western blot analysis with the indicated (left) Abs. The blots were developed with either NBT/BCIP or ECL. Arrows indicate interacting Imps.

Importin7 [4] = target: B3; assay: Co-IP with anti GFP Abs, transfected HeLa cells
Description: as §2

Importin9 [5] = target: T1, Importin9; assay: PLA, resting HeLa cells
Description: FIGS. 5A-5D illustrate that Imp3 interacts with Imp7/9-MAPK dimer in a phospho-dependent manner (A) Detecting heterodimerization of Imp3/7/9 using PLA. HeLa cells were grown on slides to 70% confluence, serum starved, and stimulated with Anisomycin (Anis, 0.5 μg/ml 15 min). Thereafter, the cells were fixed and subjected to a PLA, using the Abs indicated on top. The nuclei were detected using DAPI, and slides were visualized using a fluorescent microscope. (B) Quantification of the intensity of the signal was performed using ImageJ analysis tool. Data shown represents mean±S.E. The significance of stimulated vs NT was p<0.0005. (C) Detecting Imp3/7/9 interaction by CoIP. Serum-starved HeLa cells (0.1% FBS, 16 hrs) were treated with Anisomycin (Anis 0.5 μg/ml) or TPA (250 nM) for 15 min. Cell extracts were then subjected to a Co-IP with the Abs indicated on right. […] The beads were then washed with a washing buffer containing 150 mM NaCl, and interacting Imps were detected using Western blot analysis with the indicated Abs.
In order to examine this hypothesis, and establish a complex formation between endogenous Imp3/7/9, the present inventors monitored these possible interactions by PLA. No interaction between any of the examined Importins was detected in resting HeLa cells (FIGS. 5A, 5B). […]

B1: GST-p38β (enzyme, UniProt Q15759 1-364, looked up)
chain: MSGPRAGFYRQELNKTVWEVPQRLQGLRPVGSGAYGSVCSAYDARLRQKVAVKKLSRPFQSLIHARRTYRELRLLKHLKHENVIGLLDVFTPATSIEDFSEVYLVTTLMGADLNNIVKCQALSDEHVQFLVYQLLRGLKYIHSAGIIHRDLKPSNVAVNEDCELRILDFGLARQADEEMTGYVATRWYRAPEIMLNWMHYNQTVDIWSVGCIMAELLQGKALFPGSDYIDQLKRIMEVVGTPSPEVLAKISSEHARTYIQSLPPMPQKDLSSIFRGANPLAIDLLGRMLVLDSDQRVSAAEALAHAYFSQYHDPEDEPEAEPYDESVEAKERTLEEWKELTYQEVLSFKPPEPPKPPGSLEIEQ
notes: Made in bacteria; also called GST-p38α/β; GST-MAPK; not shown: glutathione S-transferase tag of the pGEX-2T vector (GE healthcare)
binding result (Importin9 [1]): binds | binding result (Importin7 [2]): binds

B2: p38β-GFP (enzyme, UniProt Q15759 1-364, looked up)
chain: MSGPRAGFYRQELNKTVWEVPQRLQGLRPVGSGAYGSVCSAYDARLRQKVAVKKLSRPFQSLIHARRTYRELRLLKHLKHENVIGLLDVFTPATSIEDFSEVYLVTTLMGADLNNIVKCQALSDEHVQFLVYQLLRGLKYIHSAGIIHRDLKPSNVAVNEDCELRILDFGLARQADEEMTGYVATRWYRAPEIMLNWMHYNQTVDIWSVGCIMAELLQGKALFPGSDYIDQLKRIMEVVGTPSPEVLAKISSEHARTYIQSLPPMPQKDLSSIFRGANPLAIDLLGRMLVLDSDQRVSAAEALAHAYFSQYHDPEDEPEAEPYDESVEAKERTLEEWKELTYQEVLSFKPPEPPKPPGSLEIEQ
notes: Overexpressed in HeLa cells; also called wt-p38β; GFP-p38β; not shown: GFP of the pEGFP-C1 vector (Clontech)
binding result (Importin9 [3]): binds | binding result (Importin7 [4]): binds

B3
binding result (Importin9 [5]): no binding
